# Results from PMC5823459.
# Experiments:
# [1] = biological target: mouse-human chimeric mAb 101F; assay: ELISA
# D25 [2] = assay: ELISA
# palivizumab = details: cells fixed with 4% (vol/vol) paraformaldehyde 16 h after transfection; read off a plot
# D25 [3] = details: cells fixed with 4% (vol/vol) paraformaldehyde 16 h after transfection; read off a plot
substance,measurement,setting,value
post-fusion RSV A2 F protein G430A,EC50,[1],35 ng/mL
post-fusion RSV A2 F protein I432A,EC50,[1],66 ng/mL
post-fusion RSV A2 F protein R429A,EC50,[1],26 ng/mL
pre-fusion RSV A2 F SC-TM protein G430A,EC50,[1],970 ng/mL
pre-fusion RSV A2 F SC-TM protein R429A,EC50,D25 [2],23 ng/mL
wild-type RSV F (RSV-A2) expressed on HEK-293T cells G430A,percent of parent,palivizumab,400 % WT
same,percent of parent,D25 [3],310 % WT
wild-type RSV F (RSV-A2) expressed on HEK-293T cells I432A,percent of parent,palivizumab,260 % WT
same,percent of parent,D25 [3],240 % WT
wild-type RSV F (RSV-A2) expressed on HEK-293T cells R429A,percent of parent,palivizumab,310 % WT
same,percent of parent,D25 [3],390 % WT
